Source: patent US5877293, “CDR grafted anti-CEA antibodies and their production” (Celltech Therapeutics Limited, dated 1999)

Columns and labels:
[1] = molecular target: T1, Carcinoembryonic Antigen (CEA) (Homo sapiens (Human), UniProt P06731); assay: competition RIA against 125I-labelled murine or chimeric A5B7 IgG1 on CEA coated beads
Experimental: (§1) The competition RIA for anti-CEA activity involved competition of a series of ^125I-labelled murine or chimeric A5B7 IgG1 with humanised IgG or fragments thereof from culture supernatant samples for binding to CEA coated beads. Binding activity was determined by measuring bead associated radioactivity. The assay was calibrated by competition with standard preparations of chimeric or murine A5B7 IgG1 and plotting % bound cpm versus antibody concentration. Interpolated apparent A5B7 concentration of unknowns was normalised by dividing by the assembly assay result to give a specific activity. Finally specific activity was expressed as % relative potency by comparison to that obtained from a positive control chimeric A5B7 culture supernatant produced during the same experiment.
The relative potency of purified murine and chimeric A5B7 Fab' and F(ab')_2 fragments and murine IgG was investigated using the competition RIA. In addition, the direct binding ELISA was run in competition mode, by coincubation of the test specimen with murine A5B7 IgG1, for confirmation of relative potency.
The relative potencies of murine and chimeric IgGs and fragments were measured by the competition RIA.

[2] = molecular target: T1, Carcinoembryonic Antigen (CEA); assay: direct CEA binding ELISA, crude transient CHO supernatant (pAL44 + pBG7)
[3] = molecular target: T1, Carcinoembryonic Antigen (CEA); assay: competition RIA on CEA coated beads, crude CHO supernatant
Experimental: as §1
In order to assess the CEA binding activity of the grafted chains co-expression, experiments in a transient CHO cell system were first performed with chimeric partners. Thus pAL43 and pAL44 were co-transfected into the CHO L761 h cell line (27) together with the chimeric A5B7 heavy chain expression plasmid pBG7, while pAL45 and pAL46 were co-transfected with the light chain expression plasmid pBG11. Co-transfections of pBG7 and pHMC19 were also performed to provide a chimeric/chimeric standard against which to compare activity of the chimeric/grafted hybrids. […] Competition RIAs were also performed on the crude CHO cell supernatants for gL1/gH2 and gL2/gH2.

[4] = molecular target: T1, Carcinoembryonic Antigen (CEA); assay: direct CEA binding ELISA, crude transient CHO supernatant
[5] = molecular target: T1, Carcinoembryonic Antigen (CEA); assay: direct CEA binding ELISA, crude transient CHO supernatant (pAL43 + pBG7)
[6] = molecular target: T1, Carcinoembryonic Antigen (CEA); assay: direct CEA binding ELISA, crude transient CHO supernatant (pAL46 + pBG11)
[7] = molecular target: T1, Carcinoembryonic Antigen (CEA); assay: direct CEA binding ELISA, crude transient CHO supernatant (pAL45 + pBG11)

B1: murine A5B7 F(ab')2 (other)
VH: EVKLVESGGGLVQPGGSLRLSCATSGFTFTDYYMNWVRQPPGKALEWLGFIGNKANGYTTEYSASVKGRFTISRDKSQSILYLQMNTLRAEDSATYYCTRDRGLRFYFDYWGQGTTLTVSS
VL: QTVLSQSPAILSASPGEKVTMTCRASSSVTYIHWYQQKPGSSPKSWIYATSNLASGVPARFSGSGSGTSYSLTISRVEAEDAATYYCQHWSSKPPTFGGGTKLEIKR
[1]
  % Relative Potency: 97%

B2: grafted light chain gL2 / chimeric A5B7 heavy chain hybrid (antibody, V domains shown)
VH: EVKLVESGGGLVQPGGSLRLSCATSGFTFTDYYMNWVRQPPGKALEWLGFIGNKANGYTTEYSASVKGRFTISRDKSQSILYLQMNTLRAEDSATYYCTRDRGLRFYFDYWGQGTTLTVSS
VL: QTVLTQSPSSLSVSVGDRVTMTCRASSSVTYIHWYQQKPGLAPKSWIYATSNLASGVPSRFSGSGSGTDYTLTISSLQPEDIATYYCQHWSSKPPTFGQGTKVEVKR
[2]
  binding result: binds

B3: chimeric A5B7 IgG1 (antibody, V domains shown)
VH: EVKLVESGGGLVQPGGSLRLSCATSGFTFTDYYMNWVRQPPGKALEWLGFIGNKANGYTTEYSASVKGRFTISRDKSQSILYLQMNTLRAEDSATYYCTRDRGLRFYFDYWGQGTTLTVSS
VL: QTVLSQSPAILSASPGEKVTMTCRASSSVTYIHWYQQKPGSSPKSWIYATSNLASGVPARFSGSGSGTSYSLTISRVEAEDAATYYCQHWSSKPPTFGGGTKLEIKR
[3]
  Specific activity: 1.17
  relative potency: 100%
[1]
  % Relative Potency: 100%

B4: murine A5B7 Fab' (Fab, V domains shown)
VH: EVKLVESGGGLVQPGGSLRLSCATSGFTFTDYYMNWVRQPPGKALEWLGFIGNKANGYTTEYSASVKGRFTISRDKSQSILYLQMNTLRAEDSATYYCTRDRGLRFYFDYWGQGTTLTVSS
VL: QTVLSQSPAILSASPGEKVTMTCRASSSVTYIHWYQQKPGSSPKSWIYATSNLASGVPARFSGSGSGTSYSLTISRVEAEDAATYYCQHWSSKPPTFGGGTKLEIKR
modifications: rendered monovalent by alkylation
[1]
  % Relative Potency: 8%

B5: Grafted A5B7 gL2/gH2 (antibody, V domains shown)
VH: EVQLLESGGGLVQPGGSLRLSCATSGFTFTDYYMNWVRQAPGKGLEWLGFIGNKANGYTTEYSASVKGRFTISRDKSKSTLYLQMNTLQAEDSAIYYCTRDRGLRFYFDYWGQGTLVTVSS
VL: QTVLTQSPSSLSVSVGDRVTMTCRASSSVTYIHWYQQKPGLAPKSWIYATSNLASGVPSRFSGSGSGTDYTLTISSLQPEDIATYYCQHWSSKPPTFGQGTKVEVKR
[3]
  Specific activity: 0.55
  relative potency: 47%
[4]
  binding relative to the double chimeric antibody: ~60%

B6: grafted light chain gL1 / chimeric A5B7 heavy chain hybrid (antibody, V domains shown)
VH: EVKLVESGGGLVQPGGSLRLSCATSGFTFTDYYMNWVRQPPGKALEWLGFIGNKANGYTTEYSASVKGRFTISRDKSQSILYLQMNTLRAEDSATYYCTRDRGLRFYFDYWGQGTTLTVSS
VL: QTVLTQSPSSLSVSVGDRVTITCRASSSVTYIHWYQQKPGLAPKSLIYATSNLASGVPSRFSGSGSGTDYTFTISSLQPEDIATYYCQHWSSKPPTFGQGTKVEVKR
[5]
  binding result: binds

B7: chimeric A5B7 light chain / grafted heavy chain gH2 hybrid (antibody, V domains shown)
VH: EVQLLESGGGLVQPGGSLRLSCATSGFTFTDYYMNWVRQAPGKGLEWLGFIGNKANGYTTEYSASVKGRFTISRDKSKSTLYLQMNTLQAEDSAIYYCTRDRGLRFYFDYWGQGTLVTVSS
VL: QTVLSQSPAILSASPGEKVTMTCRASSSVTYIHWYQQKPGSSPKSWIYATSNLASGVPARFSGSGSGTSYSLTISRVEAEDAATYYCQHWSSKPPTFGGGTKLEIKR
[6]
  binding result: binds

B8: chimeric A5B7 light chain / grafted heavy chain gH1 hybrid (antibody, V domains shown)
VH: EVQLLESGGGLVQPGGSLRLSCATSGFTFTDYYMNWVRQAPGKGLEWLGFIGNKANGYTTEYSASVKGRFTISRDKSKSTLYLQMNGLQAEVSAIYYCTRDRGLRFYFDYWGQGTLVTVSS
VL: QTVLSQSPAILSASPGEKVTMTCRASSSVTYIHWYQQKPGSSPKSWIYATSNLASGVPARFSGSGSGTSYSLTISRVEAEDAATYYCQHWSSKPPTFGGGTKLEIKR
[7]
  binding result: binds

B9: mouse monoclonal antibody A5B7 (murine A5B7 IgG1) (antibody, V domains shown)
VH: EVKLVESGGGLVQPGGSLRLSCATSGFTFTDYYMNWVRQPPGKALEWLGFIGNKANGYTTEYSASVKGRFTISRDKSQSILYLQMNTLRAEDSATYYCTRDRGLRFYFDYWGQGTTLTVSS
VL: QTVLSQSPAILSASPGEKVTMTCRASSSVTYIHWYQQKPGSSPKSWIYATSNLASGVPARFSGSGSGTSYSLTISRVEAEDAATYYCQHWSSKPPTFGGGTKLEIKR
[1]
  % Relative Potency: 93%

B10: chimeric A5B7 IgG4 Fab' delta cys (Fab, V domains shown)
VH: EVKLVESGGGLVQPGGSLRLSCATSGFTFTDYYMNWVRQPPGKALEWLGFIGNKANGYTTEYSASVKGRFTISRDKSQSILYLQMNTLRAEDSATYYCTRDRGLRFYFDYWGQGTTLTVSS
VL: QTVLSQSPAILSASPGEKVTMTCRASSSVTYIHWYQQKPGSSPKSWIYATSNLASGVPARFSGSGSGTSYSLTISRVEAEDAATYYCQHWSSKPPTFGGGTKLEIKR
[1]
  % Relative Potency: 20%

B11: Grafted A5B7 gL1/gH2 (antibody, V domains shown)
VH: EVQLLESGGGLVQPGGSLRLSCATSGFTFTDYYMNWVRQAPGKGLEWLGFIGNKANGYTTEYSASVKGRFTISRDKSKSTLYLQMNTLQAEDSAIYYCTRDRGLRFYFDYWGQGTLVTVSS
VL: QTVLTQSPSSLSVSVGDRVTITCRASSSVTYIHWYQQKPGLAPKSLIYATSNLASGVPSRFSGSGSGTDYTFTISSLQPEDIATYYCQHWSSKPPTFGQGTKVEVKR
[3]
  Specific activity: 0.49
  relative potency: 42%
[4]
  binding relative to the double chimeric antibody: ~60%
